One substance from patent publication US10617759B2, “Light-stimulated release of cargo from oligonucleotides” (Trustees of Boston University, priority 2016, dated 2020) can be followed below.

This data set can be described thus: Protein caging and uncaging, particle counting of TEM images. The format is physicochemical. The note with it: low power light irradiation for 60 seconds (302 nm). As to the method: BSA was directly caged through the reaction of our crosslinker with the surface amino groups on the protein. Streptavidin was indirectly caged by attaching biotin-amine to the nanocage cavity and then subsequently mixing with the protein. […] None were seen tethered to the cage exterior.
TEM samples were prepared by placing 3 μL of sample solution onto a carbon coated grid (FCF400-Cu, Electron Microscopy Sciences) which was previously charged using a plasma etcher (30 seconds of irradiation). After 2 minutes, the solution was wicked away from the grid with filter paper (Whatman 50 hardened). The grid was immediately treated with stain for 30 seconds and excess solution was wicked away. The remaining solution on the grid was evaporated at room temperate prior to imaging. TEM images were acquired with an FEI Tecnai Spirit Transmission Electron Microscope operated at 80 kV. Saturated uranyl formate (in ddH2O prepared freshly before usage) was used for protein caging experiments and 2% uranyl acetate (diluted with ddH2O from 4%, Electron Microscopy Sciences) was used for all other samples.
Protein containing nanocages were created following the general cavity functionalization protocol. 5 equivalents per oligo handle were used. […] The extent of uncaging was analyzed using particle counting of the TEM images. The entirety of each TEM image was analyzed to avoid bias.

Turning to streptavidin, the “nanocages containing protein after light irradiation” value is 9% and the uncaging efficiency is on record as 87%.
